{
  "source": "the DeepSol protein solubility set",
  "data": [
    {"test": "soluble on expression in E. coli; label from the status in PepcDB or PDB records", "values": [
      {"sequence": "MYYQQALMRSTVKSSVSLGGIVKYSEQFSSNDAIMSGCLPSNPWITDDTQFWDLNAKLVEIPTKMRVERWAFNFSELIRDPKGRQSFQYFLKKEFSGENLGFWEACEDLKYGDQSKVKEKAEEIYKLFLAPGARRWINIDGKTMDITVKGLKHPHRYVLDAAQTHIYMLMKKDSYARYLKSPIYKDMQAKAIDPQETTKKSSTLPFMRRHLRSSPSPVILRQLEEEAKAREAANTVDITQPGQHMAPSPHLTVYTGTCMPPSPSSPFSSSCRSPRKPFASPSRFIRRPTICPSPILVVLDSSSGLEQKGECSWSGANPGPSVTDSSEASRDTSWTRSRPRAPLKARMALSFSRFLRRGCLASPVFARVSPKCPAVSHGRVQPLGDVGQQLPRLKSKRVANFFQIKMDVPTGSGTCLMDSEDAGTGESGDRATEKEVICPWESL", "soluble on expression in E. coli": "not soluble"},
      {"sequence": "GLGDAGSTPTTSAADGVPSDTSLTGSGGLHLPQQLEQYRGDIMDAAKATGVPPSVIAGQIWAESRGQLNAATTNVNGKADAGLMQVNADTFKSLQQQNPGLLGNDVNDSHTNIMAGALYLRDQNKEFGDMGAALRAYNSGPDKVNKADLSDTGGVGGSSYPADVLNFAKIIESGQGNLPA", "soluble on expression in E. coli": "not soluble"},
      {"sequence": "MEKVVCIGCGVTIQTEDKTGLGYAPPASLTKENVICQRCFRLKNYNEIQDVSLTDDDFLNILHGIGETDSLVVKIVDIFDFNGSWINGLQRLVGGNPILLVGNKADILPKSLKRERLIQWMKREAKELGLKPVDVFLVSAGRGQGIREVIDAIEHYRNGKDVYVVGCTNVGKSTFINRIIKEVSGEEDIITTSQFPGTTLDAIEIPLDDGSSLYDTPGIINNHQMAHYVNKKDLKILSPKKELKPRTFQLNDQQTLYFGGLARFDYVSGERSPFICYMPNELMIHRTKLENADALYEKHAGELLTPPGKDEMDEFPELVAHTFTIKDKKTDIVFSGLGWVTVHDADKKVTAYAPKGVHVFVRRSLILEHHHHHH", "soluble on expression in E. coli": "soluble"},
      {"sequence": "MPLLSVIIPFGLSKERPYIEERVLQKAKFFQSDENIEFIFVEGYSSKDHELKNFIQANHHIYLKDMDQKAFSQGRCRNLGASYAHSNVLLFLDVDCYISLDNFEKILKLIQIKNISQNINALIVLPVVYLNKEANEKLKQYDDKFWDILIQEDLFTAKNTWVKFFAPSSTSSIVINKHQFLRLGGNDENFIGHGYEDFDLFARILKACVSFEKMPTNLSYDARNWNFFNFKGFRSWFSLLGYEACFYGIYIYHFYHIEPNQNAYMQNKDKNHQLFYKHLKNIKKHDLKPLQVFKAKGEKVLMLFKDQNYDFKDISVYVGEIIYKNISDFFIAKELKYELLLDFLQQEKITKIFLDASIKLQFNGIDYCDIFYFQKGILPHSWFFAKKLDLGYKQDLNLSEQKLYQVKEYFLTLKEDEKKVILDFLSQNNDDKYDLYKMLYYLINELYSFEHDGIFYQIIIDKEKMLIAQKHDKSFYPLRSFVYKPYLHELKSIRPFSFLMKILGLEYLGAMISHTKFYRLARKLFFNPKGFFEDFNYKIMKGKI", "soluble on expression in E. coli": "not soluble"},
      {"sequence": "MSLILRWGIIGPGWIAERFVHSLKTYSRQQVVAVASRSQAKADRVAAEWGIPQAYGQVEEMLARPDIDAVYIATPHNHHFPDGMQALKAGKHVLIEKPFALNLGEGRELQAEAARQEKLALEAMWCDYAPKYDVIRQLLEDGALGDLHTLLADHGEYFTRDHRIFNADLAGGPMMDLGSYVTSFALMVGGMPQEIVARGSATAEGLNGQTSMLFSWQNGMQGLLNTTLFSNTPGGAVVAGRQATLTIDGQFYAPGGFTLAASQGGQVLRWEEPRNRYDQLFWQAEHFAWCIGQGLQDSPLRPLSRVLQNLQVMDEVRRQVGAVFNEEREGHHHHHH", "soluble on expression in E. coli": "not soluble"},
      {"sequence": "MAHHHHHHMLNRSRLRRVWLGGTAANTSLGRDVMPSTGKYINIVSPTDVAANISAGAMPPEANVAAALPVPRIQYSKWNRALRSDVYDELLKLPLRYKLHDFAKLCPPQRCQEEPEAVGVVGRDSAVGYLPPLGPADPLDTIPFFVHRSSNGVLPGKVFSMHPRNLMPAFYLRIQQVEGDMFRFEEELLKIFPTKKIFVRSHSIYVYNVALDGRMVLHHWLLGLGF", "soluble on expression in E. coli": "not soluble"},
      {"sequence": "MYRSFFYPTRLALLAVGRNFMPMAWWMPASKEPFRFLLAVDRKNHTLSLLRELSEAALAFYPWEERAWVVRAGYLSGGRVDKARRLGVPLRPACCLAHTQVPEGALAVYEMRVSEWPWDGDHALFMGEVVHVEGSAEAKERPILFLGFRDFATLGERWRFRPGGAKPLPREERGKP", "soluble on expression in E. coli": "soluble"},
      {"sequence": "AKSVVSHSLTTLGVEVSKPPPQHDKIEASEPSFPLHESILKVVEEEWQQIDRQLPSVACRYPVSSIEAARILSVPKVDDEILGFISEATPAAATQASSTESCDKHLDLALCRSYEAAASALQIAAHTAFVAKSLQADISQAAQIINSDPSDAQQALRILNRTYDAASYLCDAAFDEVRMSACAMGSSTMGRRYLWLKDCKISPASKNKLTVAPFKGGTLFGGEVHKVIKKRGNKQ", "soluble on expression in E. coli": "soluble"},
      {"sequence": "MSDEKIINQPQDVVSEMLDGLTYAYGDLIEKVPDFEIIQRKSPKSGKVALVSGGGSGHEPAHAGFVGEGMLSAAVCGAIFTSPTPDQIYEAIKSADEGAGVLLIIKNYLGDVMNFEMAREMAEMEEIKVEQIIVDDDIAVENSLYTQGRRGVAGTVLVHKILGAAAHQEASLDEIKDLADKVVKNIKTIGLALSAATVPEVGKPGFVLDDNEIEYGVGIHSEPGYRREKMKTSYELATELVGKLKEEFKFEAGQKYGILVNGMGATPLMEQFIFMNDVAKLLTEENIEILFKKVGNYMTSIDMAGLSLTMIKLEDDQWLKNLNEDVKTISWG", "soluble on expression in E. coli": "soluble"},
      {"sequence": "MKREEIADLMAFVVVAEERSFTRAAARLSMVQSALSQIVRRIEERLGLRLLTRTTRSVVPTEAGEHLLSVLGPILHDIDSALTSLSDLQNRPSGTIRITTVEHAAKTILLPAMRTFLKSHPEIDIQLTIDYGLTDVVSERFDAGVLRCTGNSGYYHLFFF", "soluble on expression in E. coli": "not soluble"},
      {"sequence": "MSNVYVMALDFGNGFVKGKINDEKFVIPSRIGRKTNENNQLKGFVDNKLDVSEFIINGNNDEVLLFGNDLDKTTNTGKDTASTNDRYDIKSFKDLVECSIGLLAREVPEEVVNVVIATGMPSNEIGTDKQAKFEKLLNKSRLIEIDGIAKTINVKGVKIVAQPMGTLLDLNMENGKVFKAFTEGKYSVLDFGSGTTIIDTYQNMKRVEEESFVINKGTIDFYKRIASHVSKKSEGASITPRMIEKGLEYKQCKLNQKTVIDFKDEFYKEQDSLIEEVMSNFEITVGNINSIDRIIVTGGGANIHFDSLSHYYSDVFEKADDSQFSNVRGYEKLGELLKNKVEQESKRGSHHHHHH", "soluble on expression in E. coli": "soluble"},
      {"sequence": "MSLREAMSKQAMLDAIEAEREVLIGFLQEFVRAASPNPPGDTRAAAAVIQGFLSARGVPNELLGPQESMPNVVSECEGGRAGPRLVYNGHMDVFPVGDGHGWTRDPWSGDIEEGRLHGRGTCDMKTGTAASVIAYAYLYARRAQLAGSVALTAVSDEETGGRWGTRWLLENDTRWRGDCVLNGEPSSLDTIRFSEKGTLRLKFEVLAAGAHGAYVHRSESPTRIAAALIGRLAEVEAIEPSLPAALKAHLQREDVRRALDVAMGEGAADVVTRTTLNVGVLNGGLKINMIPDRCVFEVDIRLPVGTEPDVVLARLEGILAEFPQASMEVQQWHSTPPNVCAHDHPMVDFIADNAQAIVGRRPVAVPSIGSTDCRYWRRSGVPAYVYGPAPGRMAMSNESVDLDEFIAVAKVHAAAGWDYLNGAAEGHHHHHH", "soluble on expression in E. coli": "soluble"},
      {"sequence": "MSLGGPNADAQRANQRNVKKPNTQTKIRLPESVRTKKPVDMDVAPVRQSSRDEIRYAANELDTFIERELLAEGIAAEELASDEVFLRRIYLDVAGRIPTLQEAEQFLSSKSSDRREELIDQLLSSPDYVSHTYNWWADTLRLVDRPQPNLVADPYNGYIKESIAENKPYDKWVYEMLTADGKVWDNPAVGFQLRDDGMPLPYIDNTVRVFLGTQIGCAQCHDHPFDEWSQYQFYQLAAFTAGTSTRMRKGDPGYEKTNPANDLINEGKKRYEKGRVPGEFQRIARANTYIVSERPRRLRLPHDYAYRDAKPKDFVEPKVLWGEIPSSAAKSTPREQFAAWVTSPENPRFSQTVVNRLWKRLMGVGFVDPVDDFRDENPCVNEAAMDYLCKELVRRGFDLKELTRIVLYSQTYQRKAVDYDITDGDLYYFPGPTVRRMTAEQVWDSILTLAVDNPWPFQRPTAKEMKPVMDLDFSKVDFEEVQRRSAKFKETYFASTYKRNLNQHAYQRNVLCRASELPAPLPADHFLRQFGQGDREVINGSQDEATVPQILAMFNGPITHVMLEPGSALVDNVLEVNNVKNRIDAIFLSVLTRKPSTEDRILASRELSSQNQTGVGYGNIIWALLNTREFLFVQEGHHHHHH", "soluble on expression in E. coli": "not soluble"},
      {"sequence": "MGSDKIHHHHHHMAHLPQMKIPATYMRGGTSKGVFFSLTDLPAAAQVAGAARDAILLRVIGSPDPYGKHTDGMGGATSSTSKTVILSKSTQADHDVDYLFGQVSIDKPFVDWSGNCGNLTAAVGSFAISNGLIDPSRVPENGTAIVRIWQANIHKTIIAHVPITNGEVQETGDFELDGVTFPAAEVQVEFLDPADGDGAMFPTGNVVDELNVPGVGTFKATMINAGIPTIFINAADIQYQGTELQDDINNDDKALAMFETIRAYGAVKMGLIKHIDEAVARQHTPKVAFVAPAANYISSSGKAVNTDDIDLVVRALSMGKLHHAMMGTAAVAIGTAAAIPGTLVNLAAGGGELSAVRFGHPSGTLRVGAQAALVQGQWQVKKAIMSRSARVLMEGKVSIPQ", "soluble on expression in E. coli": "not soluble"},
      {"sequence": "GSHMSLFDFFKNKGSAATATDRLKLILAKERTLNLPYMEEMRKEIIAVIQKYTKSSDIHFKTLDSNQSVETIEVEIILPR", "soluble on expression in E. coli": "soluble"},
      {"sequence": "MNIYQQLVKQKLKTITPEELVSYSREYGLPITTSQAKQILHLARTNDINVFDPEERKKWVRELAKITSPDIARKANELFLKFVQKK", "soluble on expression in E. coli": "not soluble"},
      {"sequence": "MGSDKIHHHHHHMKPIQLPLSVRLRDDATFANYYPGANAAALGYVERLCEAEAGWAESLIYLWGHDGVGRSHLLQAACLRFEQFEERTIYLPMADLVQYGPEIFDDLEQCELVCIDDLDVLVGKREWEEGLFHLFNRLRDTGRRLLLAASKSPRELQVKLPDLKSRLTMALIFQLHGLSDEDKLRALQLRASRRGLHLTDEVGRFILNRGSRSMNSLFDLLEQLDRASLQAQRKLTIPFLKETLGW", "soluble on expression in E. coli": "not soluble"},
      {"sequence": "MSSYQQKQTFTPPPQLQQQQVKQPSQPPPQEIFVPTTKEPCHSKVPQPGNTKIPEPGCTKVPEPGCTKVPEPGCTKVPEPGCTKVPEPGCTKVPEPGYTKVPEPGSIKVPDQGFIKFPEPGAIKVPEQGYTKVPVPGYTKVPEPCPSTVTPGPAQQKTKQK", "soluble on expression in E. coli": "soluble"},
      {"sequence": "MSVELWQQCVDLLRDELPSQQFNTWIRPLQVEAEGDELRVYAPNRFVLDWVNEKYLGRLLELLGERGEGQLPALSLLIGSKRSRTPRAAIVPSQTHVAPPPPVAPPPAPVQPVSAAPVVVPREELPPVTTAPSVSSDPYEPEEPSIDPLAAAMPAGAAPAVRTERNVQVEGALKHTSYLNRTFTFENFVEGKSNQLARAAAWQVADNLKHGYNPLFLYGGVGLGKTHLMHAVGNHLLKKNPNAKVVYLHSERFVADMVKALQLNAINEFKRFYRSVDALLIDDIQFFARKERSQEEFFHTFNALLEGGQQVILTSDRYPKEIEGLEERLKSRFGWGLTVAVEPPELETRVAILMKKAEQAKIELPHDAAFFIAQRIRSNVRELEGALKRVIAHSHFMGRPITIELIRESLKDLLALQDKLVSIDNIQRTVAEYYKIKISDLLSKRRSRSVARPRQVAMALSKELTNHSLPEIGVAFGGRDHTTVLHACRKIAQLRESDADIREDYKNLLRTLTT", "soluble on expression in E. coli": "not soluble"}
    ]}
  ]
}
